This is an account of results in paper PMC9266650.

Assay [1] has as its target Skeletal actin, unmodified (0% ADPR-actin control) (not stated (purified from rabbit or chicken skeletal muscle)) (UniProt P68135).
In assay [2] the target is T148-ADP-ribosylated-actin (100% TccC3-ADP-ribosylated actin) (not stated (purified from rabbit or chicken skeletal muscle)) (UniProt P68135). In words: fluorescence polarisation.

As to Thymosin-β4 (peptide), the time at which 50% of actin is polymerized (t1/2); 2.5 µM pyrene-labeled (5%) G-actin, 0% modified, with 2.5 µM TMSB4 in assay [1] is 2.04 h. The fold reduction of affinity against unmodified actin in assay [2] is 6.4 fold.
